Results: patent US20040213780A1 (GENERAL HOSPITAL, published 2004)

Target: T1, mutant full-length huntingtin with 75 glutamines (HttQ75) (UniProt P42858 1-3142)
T1 construct: domain: full-length; In the yeast two-hybrid assay expressed as prey fusion from vector pJG4-5 (hemagglutinin tag); also called mutant huntingtin
Assay: yeast two-hybrid, huntingtin prey against TAFII130 bait
Method: All the constructs were verified by DNA sequencing for correct reading frame and orientation. All assays were performed in triplicates and protein expression verified by Western blotting using standard procedures. The ability of the LexA fusion to bind operator was confirmed by a repression assay. The two-hybrid screen assays were performed as described (D. Krainc et al., J. Biol. Chem. 273:26218, 1998).
Because NH₂-terminal fragments of mutant huntingtin can effectively induce cell death in both in vivo and in vitro models (L. Mangiarini, et al., Cell 87:493, 1996; J. K. Copper, et al., Hum. Mol. Genet. 7:783, 1998; D. Martindale, et al., Nature Genet. 18:150, 1998; S. H. Li and X. Y. Li, Hum. Mol. Genet. 7:777, 1998), we examined the interactions of Sp1 and TAFII130 with the 480-amino acid NH₂-terminal fragment of huntingtin. […] FIG. 1 illustrates that Huntingtin interacted with Sp1 and TAFII130 in vitro and in human HD brain tissue. FIG. 1A illustrates results of yeast two-hybrid experiments, as described above herein, performed with full-length (HttQ17 and HttQ75) or truncated huntingtin constructs (Htt480Q17 and Htt480Q68) as prey against bait plasmids containing full-length Sp1 or Sp1 lacking the DNA binding domain (Sp1AB, amino acids 83 through 621).

T1 sequence (P42858 other isoform, or with tags, fused parts or gaps mutant limits assumed): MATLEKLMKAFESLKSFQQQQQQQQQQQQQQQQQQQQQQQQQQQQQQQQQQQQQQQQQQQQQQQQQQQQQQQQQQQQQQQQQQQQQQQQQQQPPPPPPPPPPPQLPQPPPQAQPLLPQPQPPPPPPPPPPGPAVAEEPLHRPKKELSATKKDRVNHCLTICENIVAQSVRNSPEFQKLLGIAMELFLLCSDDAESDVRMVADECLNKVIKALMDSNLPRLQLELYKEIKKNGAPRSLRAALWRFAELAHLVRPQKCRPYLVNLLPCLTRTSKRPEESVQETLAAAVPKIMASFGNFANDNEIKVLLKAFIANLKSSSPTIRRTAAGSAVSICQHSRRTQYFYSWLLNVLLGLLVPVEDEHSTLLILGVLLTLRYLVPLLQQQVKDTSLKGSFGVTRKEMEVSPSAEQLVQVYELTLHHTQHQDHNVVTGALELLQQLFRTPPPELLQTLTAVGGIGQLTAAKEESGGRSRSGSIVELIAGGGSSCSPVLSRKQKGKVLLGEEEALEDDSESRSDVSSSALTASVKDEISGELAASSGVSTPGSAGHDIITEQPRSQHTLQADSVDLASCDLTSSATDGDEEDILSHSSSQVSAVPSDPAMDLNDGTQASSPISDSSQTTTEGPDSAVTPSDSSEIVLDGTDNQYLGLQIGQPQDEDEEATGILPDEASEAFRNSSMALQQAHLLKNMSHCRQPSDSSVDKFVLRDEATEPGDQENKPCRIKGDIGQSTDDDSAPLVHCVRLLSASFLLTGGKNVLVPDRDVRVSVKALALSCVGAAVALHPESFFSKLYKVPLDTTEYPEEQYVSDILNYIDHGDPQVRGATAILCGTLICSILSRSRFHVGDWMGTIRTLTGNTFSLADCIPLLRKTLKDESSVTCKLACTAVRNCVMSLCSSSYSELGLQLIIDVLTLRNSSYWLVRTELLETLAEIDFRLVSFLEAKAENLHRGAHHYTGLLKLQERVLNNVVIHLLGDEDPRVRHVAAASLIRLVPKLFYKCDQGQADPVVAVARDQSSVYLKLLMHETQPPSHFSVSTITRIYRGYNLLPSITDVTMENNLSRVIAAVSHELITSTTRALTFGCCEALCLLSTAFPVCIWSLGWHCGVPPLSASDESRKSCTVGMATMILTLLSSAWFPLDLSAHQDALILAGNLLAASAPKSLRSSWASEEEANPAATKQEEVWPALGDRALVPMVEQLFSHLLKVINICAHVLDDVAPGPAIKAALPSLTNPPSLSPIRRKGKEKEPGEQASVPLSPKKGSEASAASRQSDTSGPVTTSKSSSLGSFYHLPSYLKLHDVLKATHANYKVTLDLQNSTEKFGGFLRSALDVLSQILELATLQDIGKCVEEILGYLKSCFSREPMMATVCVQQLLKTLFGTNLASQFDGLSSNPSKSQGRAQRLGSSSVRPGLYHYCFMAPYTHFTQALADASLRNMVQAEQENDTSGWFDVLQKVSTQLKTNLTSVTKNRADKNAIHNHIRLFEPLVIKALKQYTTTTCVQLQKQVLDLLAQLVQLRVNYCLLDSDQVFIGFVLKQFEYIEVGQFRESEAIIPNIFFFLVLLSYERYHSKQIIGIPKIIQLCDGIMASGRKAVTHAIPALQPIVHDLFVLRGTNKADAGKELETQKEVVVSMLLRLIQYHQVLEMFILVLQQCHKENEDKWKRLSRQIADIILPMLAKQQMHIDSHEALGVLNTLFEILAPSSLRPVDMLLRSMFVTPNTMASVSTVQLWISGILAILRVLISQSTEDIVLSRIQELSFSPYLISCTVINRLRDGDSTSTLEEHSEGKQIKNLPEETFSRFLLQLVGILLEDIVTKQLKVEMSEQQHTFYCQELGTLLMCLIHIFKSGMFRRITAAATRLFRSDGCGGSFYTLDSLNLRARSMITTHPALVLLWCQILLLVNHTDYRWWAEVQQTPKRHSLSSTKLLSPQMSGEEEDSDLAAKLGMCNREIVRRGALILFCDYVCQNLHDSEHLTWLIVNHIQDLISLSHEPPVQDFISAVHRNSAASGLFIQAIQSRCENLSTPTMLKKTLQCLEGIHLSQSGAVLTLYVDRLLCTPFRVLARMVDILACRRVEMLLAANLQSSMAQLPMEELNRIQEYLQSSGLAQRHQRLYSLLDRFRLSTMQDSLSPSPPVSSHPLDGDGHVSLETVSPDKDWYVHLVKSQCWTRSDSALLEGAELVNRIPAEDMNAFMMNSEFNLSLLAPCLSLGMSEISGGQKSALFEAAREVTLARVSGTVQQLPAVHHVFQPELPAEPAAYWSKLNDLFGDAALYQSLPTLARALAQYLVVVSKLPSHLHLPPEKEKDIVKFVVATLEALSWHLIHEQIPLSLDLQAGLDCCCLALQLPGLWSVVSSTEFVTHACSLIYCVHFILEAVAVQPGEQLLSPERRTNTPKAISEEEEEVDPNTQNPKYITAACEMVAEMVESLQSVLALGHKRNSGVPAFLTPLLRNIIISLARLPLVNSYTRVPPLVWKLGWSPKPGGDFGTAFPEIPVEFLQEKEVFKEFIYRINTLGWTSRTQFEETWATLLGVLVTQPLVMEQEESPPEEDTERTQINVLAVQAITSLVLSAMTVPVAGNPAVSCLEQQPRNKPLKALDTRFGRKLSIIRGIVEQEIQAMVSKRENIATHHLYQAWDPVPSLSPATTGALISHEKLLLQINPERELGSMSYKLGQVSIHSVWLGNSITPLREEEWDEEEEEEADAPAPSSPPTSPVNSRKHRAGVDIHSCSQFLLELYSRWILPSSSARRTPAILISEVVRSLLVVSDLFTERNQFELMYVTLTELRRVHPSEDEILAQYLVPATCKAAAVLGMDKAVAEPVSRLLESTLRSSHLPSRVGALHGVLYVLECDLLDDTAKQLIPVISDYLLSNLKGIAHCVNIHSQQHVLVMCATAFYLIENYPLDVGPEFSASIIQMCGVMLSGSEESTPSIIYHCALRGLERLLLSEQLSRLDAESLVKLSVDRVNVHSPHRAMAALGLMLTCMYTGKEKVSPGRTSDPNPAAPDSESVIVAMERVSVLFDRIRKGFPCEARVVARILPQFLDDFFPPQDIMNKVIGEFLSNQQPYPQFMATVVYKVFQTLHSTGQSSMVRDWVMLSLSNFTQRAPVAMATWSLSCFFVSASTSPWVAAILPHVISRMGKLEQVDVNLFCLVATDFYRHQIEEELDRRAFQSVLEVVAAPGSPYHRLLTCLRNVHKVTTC

- binding result: binds
B1: TAFII130 (coactivator), full length (other, UniProt O00268 139-1085, looked up)
chain: PVPAAAAVAAGPEPAPAGPAKPAGPAALAARAGPGPGPGPGPGPGPGPGKPAGPGAAQTLNGSAALLNSHHAAAPAVSLVNNGPAALLPLPKPAAPGTVIQTPPFVGAAAPPAPAAPSPPAAPAPAAPAAAPPPPPPAPATLARPPGHPAGPPTAAPAVPPPAAAQNGGSAGAAPAPAPAAGGPAGVSGQPGPGAAAAAPAPGVKAESPKRVVQAAPPAAQTLAASGPASTAASMVIGPTMQGALPSPAAVPPPAPGTPTGLPKGAAGAVTQSLSRTPTATTSGIRATLTPTVLAPRLPQPPQNPTNIQNFQLPPGMVLVRSENGQLLMIPQQALAQMQAQAHAQPQTTMAPRPATPTSAPPVQISTVQAPGTPIIARQVTPTTIIKQVSQAQTTVQPSATLQRSPGVQPQLVLGGAAQTASLGTATAVQTGTPQRTVPGATTTSSAATETMENVKKCKNFLSTLIKLASSGKQSTETAANVKELVQNLLDGKIEAEDFTSRLYRELNSSPQPYLVPFLKRSLPALRQLTPDSAAFIQQSQQQPPPPTSQATTALTAVVLSSSVQRTAGKTAATVTSALQPPVLSLTQPTQVGVGKQGQPTPLVIQQPPKPGALIRPPQVTLTQTPMVALRQPHNRIMLTTPQQIQLNPLQPVPVVKPAVLPGTKALSAVSAQAAAAQKNKLKEPGGGSFRDDDDINDVASMAGVNLSEESARILATNSELVGTLTRSCKDETFLLQAPLQRRILEIGKKHGITELHPDVVSYVSHATQQRLQNLVEKISETAQQKNFSYKDDDRYEQASDVRAQLKFFEQLDQIEKQRKDEQEREILMRAAKSRSRQEDPEQLRLKQKAKEMQQQELAQMRQRDANLTALAAIGPRKKRKVDCPGPGSGAEGSGPGSVVPGSSGVGTPRQFTRQRITRVNLRDLIFCLENERETSHSLLLYKAFLK
notes: domain: full-length; in striatal neurons overexpressed
